The source of these data is patent US20250361314A1 (SHANGHAI HUAOTA BIOPHARMACEUTICAL, published 2025).

In assay [1] the target is soluble recombinant protein CD73. The assay is described as follows: cell-based or functional assay.
Assay [2] addresses T1, Human CD73 on CHOK1-huCD73-3F4 cells overexpressing CD73 (human, UniProt P21589 27-549).
T1 sequence (looked up): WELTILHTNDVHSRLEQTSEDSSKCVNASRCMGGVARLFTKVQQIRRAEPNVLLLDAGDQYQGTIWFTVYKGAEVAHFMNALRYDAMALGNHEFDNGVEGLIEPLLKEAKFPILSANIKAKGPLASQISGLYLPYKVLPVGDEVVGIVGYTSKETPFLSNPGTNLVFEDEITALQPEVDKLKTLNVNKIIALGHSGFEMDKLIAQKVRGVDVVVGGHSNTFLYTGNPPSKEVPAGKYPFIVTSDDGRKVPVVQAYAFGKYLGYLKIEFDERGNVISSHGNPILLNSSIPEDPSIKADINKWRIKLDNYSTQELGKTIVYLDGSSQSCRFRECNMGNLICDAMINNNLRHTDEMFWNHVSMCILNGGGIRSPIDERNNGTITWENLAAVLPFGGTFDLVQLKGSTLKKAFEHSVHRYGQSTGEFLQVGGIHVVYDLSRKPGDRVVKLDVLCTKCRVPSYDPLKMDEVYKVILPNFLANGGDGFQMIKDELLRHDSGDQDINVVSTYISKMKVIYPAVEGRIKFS
The assay is described as follows: cell-based or functional assay.

For the next assay, the target named is T2, Mouse CD73 antigen (mouse, UniProt Q61503 29-549, limits assumed).
T2 construct: Antigen used as analyte in SPR
T2 sequence (looked up): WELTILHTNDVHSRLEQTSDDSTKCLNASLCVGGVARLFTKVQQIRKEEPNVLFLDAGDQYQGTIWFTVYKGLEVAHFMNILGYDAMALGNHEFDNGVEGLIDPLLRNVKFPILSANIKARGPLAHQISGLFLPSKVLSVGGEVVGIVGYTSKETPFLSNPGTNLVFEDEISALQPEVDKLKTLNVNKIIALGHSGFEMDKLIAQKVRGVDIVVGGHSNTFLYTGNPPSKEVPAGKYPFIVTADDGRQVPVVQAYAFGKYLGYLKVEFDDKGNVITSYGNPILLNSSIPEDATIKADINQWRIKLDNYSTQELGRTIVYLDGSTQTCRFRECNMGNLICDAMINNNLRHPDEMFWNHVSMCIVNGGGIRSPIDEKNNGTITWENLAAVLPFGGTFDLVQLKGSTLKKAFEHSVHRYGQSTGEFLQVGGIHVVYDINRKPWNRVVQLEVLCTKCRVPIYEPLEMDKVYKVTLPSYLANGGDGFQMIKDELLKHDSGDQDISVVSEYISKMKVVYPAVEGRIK
The assay is described as follows: SPR (Biacore 8K), antibody captured on anti-human capture CM5 chip, antigen as analyte. As for the experimental part: The experimental method is as follows:
An Anti-Human Capture-CM5 chip (GE, #BR-1005-30) was prepared using coupling methods of a Human Antibody Capture Kit (GE, #BR-1008-39) and an amino coupling kit (GE, BR-1000-50). The chip was equilibrated at room temperature for about 20-30 min and loaded into a Biacore 8K instrument. The antigen and antibody were diluted to an experimental working concentration using an equilibration buffer. The antigen was diluted with an equilibrium buffer to 50 nM, and then diluted three-fold for seven concentration gradients, and two zero concentrations (i.e., the equilibrium buffer) and one repeat concentration (typically the lowest concentration repeat) were set. Experimental analysis was performed on 10 antigen concentrations (2 zero concentrations, 7 gradient concentrations, and 1 repeated concentration) in a cyclic manner according to an order of antibody, antigen, and regeneration. The antigen injection flow rate was 30 μL/min, the binding time was 120 s, and the dissociation time was 600 s. Following the analysis, the data was analyzed using the corresponding analysis program to confirm that there was no obvious reference binding. Using Kinetics and a 1:1 binding model, the data was fit to obtain the kinetic related parameters Ka, Kd, and KD values of the bispecific antibodies.
A general note: Surface plasmon resonance follows binding to a sensor surface in real time, without labels.

Sequence of soluble recombinant protein CD73 (P21589 whole entry): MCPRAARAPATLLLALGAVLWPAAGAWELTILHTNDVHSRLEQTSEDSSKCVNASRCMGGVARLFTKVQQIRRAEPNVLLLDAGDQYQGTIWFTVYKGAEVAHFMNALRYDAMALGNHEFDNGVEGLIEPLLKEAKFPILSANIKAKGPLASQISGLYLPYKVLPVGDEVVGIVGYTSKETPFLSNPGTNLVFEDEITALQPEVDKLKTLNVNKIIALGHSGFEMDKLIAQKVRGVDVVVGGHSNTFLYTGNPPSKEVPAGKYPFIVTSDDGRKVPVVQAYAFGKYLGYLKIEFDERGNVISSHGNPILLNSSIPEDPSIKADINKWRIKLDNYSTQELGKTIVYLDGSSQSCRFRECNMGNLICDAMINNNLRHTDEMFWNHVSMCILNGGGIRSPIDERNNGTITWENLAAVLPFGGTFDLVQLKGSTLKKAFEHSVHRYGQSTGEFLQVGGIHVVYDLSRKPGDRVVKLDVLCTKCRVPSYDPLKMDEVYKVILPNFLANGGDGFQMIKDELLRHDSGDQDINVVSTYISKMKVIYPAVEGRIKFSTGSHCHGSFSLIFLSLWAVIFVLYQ

B1: CD39/CD73 bispecific antibody 700038 (CD39-VHH-CD73-IgG) (bispecific antibody)
heavy: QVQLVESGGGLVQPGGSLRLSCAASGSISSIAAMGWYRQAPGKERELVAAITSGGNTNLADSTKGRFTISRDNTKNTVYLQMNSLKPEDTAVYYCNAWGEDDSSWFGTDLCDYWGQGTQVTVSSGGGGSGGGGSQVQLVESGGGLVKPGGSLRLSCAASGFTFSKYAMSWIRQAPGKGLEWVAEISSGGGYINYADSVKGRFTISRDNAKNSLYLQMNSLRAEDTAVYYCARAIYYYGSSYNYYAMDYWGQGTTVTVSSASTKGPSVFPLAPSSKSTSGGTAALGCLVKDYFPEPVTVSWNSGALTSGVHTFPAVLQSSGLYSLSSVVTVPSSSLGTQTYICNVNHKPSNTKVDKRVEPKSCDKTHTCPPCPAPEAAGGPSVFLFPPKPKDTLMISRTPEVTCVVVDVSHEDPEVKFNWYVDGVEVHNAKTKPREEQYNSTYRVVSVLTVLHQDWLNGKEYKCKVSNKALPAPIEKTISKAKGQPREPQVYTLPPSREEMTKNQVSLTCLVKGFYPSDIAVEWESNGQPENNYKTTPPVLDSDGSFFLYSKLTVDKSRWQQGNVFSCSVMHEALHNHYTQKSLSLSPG
light: DIQMTQSPSSLSASVGDRVTITCRASQDVGTAEAWYQQKPGKAPKLLIYWASTRHTGVPSRFSGSGSGTDFTLTISSLQPEDFATYYCQQYSSYPLTFGQGTKLEIKRTVAAPSVFIFPPSDEQLKSGTASVVCLLNNFYPREAKVQWKVDNALQSGNSQESVTEQDSKDSTYSLSSTLTLSKADYEKHKVYACEVTHQGLSSPVTKSFNRGEC
Consider B1, for which, in assay [1], the “EC50 (µg/mL), inhibition of enzyme activity of soluble CD73 protein (CellTiter Glo)” value stood at 1.85 µg/mL.

B2: CD39/CD73 bispecific antibody 700035 (CD39-VHH-CD73-IgG) (bispecific antibody)
heavy: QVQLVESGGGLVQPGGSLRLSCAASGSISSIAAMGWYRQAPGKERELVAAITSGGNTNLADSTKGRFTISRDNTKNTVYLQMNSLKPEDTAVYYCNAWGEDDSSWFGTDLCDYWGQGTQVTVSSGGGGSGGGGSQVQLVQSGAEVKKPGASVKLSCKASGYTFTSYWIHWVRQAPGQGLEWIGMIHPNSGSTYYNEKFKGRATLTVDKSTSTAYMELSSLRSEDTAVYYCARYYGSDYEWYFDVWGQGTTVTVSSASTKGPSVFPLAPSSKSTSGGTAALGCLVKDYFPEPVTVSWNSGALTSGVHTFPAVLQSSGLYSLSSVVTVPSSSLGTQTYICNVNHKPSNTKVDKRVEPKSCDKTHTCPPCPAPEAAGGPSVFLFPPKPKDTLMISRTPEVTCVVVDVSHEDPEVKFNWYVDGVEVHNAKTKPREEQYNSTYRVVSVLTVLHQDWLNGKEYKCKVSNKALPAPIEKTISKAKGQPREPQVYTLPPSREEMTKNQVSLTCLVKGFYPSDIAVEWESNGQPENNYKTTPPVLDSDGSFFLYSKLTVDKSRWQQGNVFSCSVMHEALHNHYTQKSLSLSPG
light: DIQMTQSPSSMSASVGDRVTITCKASQNVRTAVVWYQQKPGKAPKALIYLASNRHTGVPDRFSGSGSGTDFTLTISSLQPEDFATYFCLQHWNYPYTFGQGTKLEIKRTVAAPSVFIFPPSDEQLKSGTASVVCLLNNFYPREAKVQWKVDNALQSGNSQESVTEQDSKDSTYSLSSTLTLSKADYEKHKVYACEVTHQGLSSPVTKSFNRGEC
With B2, the “EC50 (µg/mL), inhibition of enzyme activity of membrane CD73 on CHOK1-huCD73-3F4 cells (CellTiter Glo)” value in assay [2] was determined as 0.615 µg/mL. Besides, in the assay with Mouse CD73 antigen, the binding result was “no binding (tested: 50 nM (highest antigen concentration))”.
